Residue numbers refer to the chain shown, from its start. In names and notes the source's numbering stands.
B1: BDG17.066 (antibody, human IgG1, kappa, L234A L235A, V domains shown)
VH: QVQLVQSGAEVKKPGSSVKVSCKASGYSITDSLIHWVRQAPGQGLEWMGWIDPEDGEINYAQKFQGRVTLTADTSTSTAYMELSSLRSEDTAVYYCARSLDSYPIDPFAYWGQGTLVTVSS
VL: DIVMTQSPDSLAVSLGERATINCKSSQSLLRNGNQQNYLAWYQQKPGQPPKLLIYYASTGQSGVPDRFSGSGSGTDFTLTISSLQAEDVAVYYCQQHYVTPPTFGAGTKVEIKR
notes: Humanized IgG1 with the LALA mutation (L234A, L235A)
B2: BDG17.067 (antibody, human IgG1, kappa, L234A L235A, V domains shown)
VH: B1 VH with S32Y, E57V, I58T, N59A, S102Y, Y103D, D106Y
VL: B1 VL with Q36K
notes: Humanized IgG1 with the LALA mutation; also called BDG17.0067
B3: BDG17.053 (antibody, V domains shown)
VH: B1 VH with S32Y, I58T, S102Y, Y103D, D106Y
VL: DIVMTQSPDSLAVSLGERATINCKSSQSLLRNGNQKNYLAWYQQKPGQPPKLLIYYASTGQSGVPDRFSGSGSGTDFTLTISSLQAEDVAVYYCQQHYITPPTFGAGTKVEIK
notes: Humanized IgG1
B4: BDG17.038 (antibody, V domains shown)
VH: B1 VH
VL: B3 VL with K36Q, I99V
notes: Humanized IgG1
B5: BDG17.054 (antibody, V domains shown)
VH: B1 VH with S32D, I58T, Y103T, P104W, D106Y
VL: B3 VL with N32R, Y38H, Y56D, Q95L, H97S
notes: Humanized IgG1 without the LALA mutation
B6: BDG17.043 (antibody, V domains shown)
VH: B1 VH with S32Y, E57V, I58T, N59A, S102Y, Y103D, D106Y
VL: B3 VL with I99V
notes: Humanized IgG1; also called BDG017.043
B7: BDG17.023 IgG (antibody, V domains shown)
VH: EIQLQQSGPELRRPGSSVKLSCKASGYNITDYLIHWVRHRPEHGLEWIGWIDPEDGETRYAQKFQSKATLTADTSSNAAYMQLSSLTPEDTATYFCARQLDSTYIYPFAYWGQGTLVTVSS
VL: DIVMTQSPFSLAVSEGEMVTINCKSSQSLLRSGNQKNYLAWYQQKPGQSPKLLIYYASTGQSGVPDRFIGSGSGTDFTLTISDVQAEDLADYYCLQHYITPPTFGAGTKLELK
notes: Human chimeric IgG1 with rat Fv
B8: BDG JES6.1RMC (17.006) (antibody, V domains shown)
VH: B7 VH with Q99S
VL: B7 VL with R31S, T100S
notes: Rat Fv with a mouse IgG2a constant region
B9: human CD25 (soluble) (receptor, UniProt P01589 22-213, looked up)
chain: ELCDDDPPEIPHATFKAMAYKEGTMLNCECKRGFRRIKSGSLYMLCTGNSSHSSWDNQCQCTSSATRNTTKQVTPQPEEQKERKTTEMQSPMQPVDQASLPGHCREPPPWENEATERIYHFVVGQMVYYQCVQGYRALHRGPAESVCKMTHGKTRWTQPQLICTGEMETSQFPGEEKPQASPEGRPESETSC
notes: Injected as soluble analyte at 1000 nM / 1 uM; also called hCD25; IL-2Rα
B10: biotinylated human CD25 (receptor, UniProt P01589 22-213, looked up)
chain: B9 chain
modifications: biotinylated
notes: Captured on a streptavidin-coated chip; also called biotinylated hCD25

Assays:
Human IL-2 [1] = biological target: T1, Human IL-2 (human, UniProt P60568 21-153); assay: SPR, multi-cycle, antibody captured, hIL-2 analyte
T1 construct: Soluble analyte in the SPR experiments; also called hIL-2; recombinant human IL-2
T1 sequence (P60568 21-153 limits assumed): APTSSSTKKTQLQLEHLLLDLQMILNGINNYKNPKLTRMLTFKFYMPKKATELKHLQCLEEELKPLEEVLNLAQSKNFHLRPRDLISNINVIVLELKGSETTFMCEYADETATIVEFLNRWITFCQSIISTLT
Excerpt: (§1) The SPR analysis was done on Biacore […] (GE healthcare, USA) on CM5 chips (cat:br10005-30, GE healthcare, USA). The chip was crosslinked with primary capture Ab against human IgG (Cat: br-1008-39, GE healthcare, USA) or primary capture antibody against mouse IgG (Cat: BR-1008-38, GE healthcare, USA) to a target of 8000RU. After cross-linking of the primary Ab, the mouse and human tested antibodies were immobilized on the primary Ab to a target of approximately additional 500RU. […] At the end of each cycle the analyte and tested antibody were stripped from the chip using 3M MgCl₂ and new tested Ab was loaded on the chip as described above. When indicated, instead of stripping the antibodies, kinetics was determined by injecting series of analyte concentrations in one cycle by the Single-cycle kinetics method. Binding kinetics were determined by the 1:1 Binding model using the Biacore T200 evaluation software.

cynomolgus monkey IL-2 = biological target: T2, cynomolgus monkey IL-2 (cynomolgus monkey, UniProt Q29615 21-154); assay: SPR, multi-cycle, antibody captured, cynomolgus IL-2 analyte
T2 construct: also called cIL-2
T2 sequence (Q29615 21-154 limits assumed): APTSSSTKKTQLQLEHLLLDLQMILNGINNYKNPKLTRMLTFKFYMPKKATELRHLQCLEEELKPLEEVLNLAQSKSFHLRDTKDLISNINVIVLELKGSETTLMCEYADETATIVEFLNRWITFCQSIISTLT
Excerpt: as §1

Human IL-2 [2] = biological target: T1, Human IL-2; assay: SPR, single-cycle, antibody captured, hIL-2 analyte
Excerpt: as §1

Human IL-2 [3] = biological target: T1, Human IL-2; assay: SPR, antibody captured on anti-human IgG CM5 chip, human IL-2 as analyte, single-cycle, 1:1 binding model
Excerpt: as §1

Human IL-2 [4] = biological target: T1, Human IL-2; assay: SPR, antibody captured on anti-human IgG CM5 chip, human IL-2 as analyte, multi-cycle, 1:1 binding model
Excerpt: as §1

Human IL-2 [5] = biological target: T1, Human IL-2; assay: SPR Biacore T200, antibody captured, hIL-2 analyte
Excerpt: as §1

Mouse IL-2 [6] = biological target: T3, Mouse IL-2 (mouse, UniProt P04351 21-169); assay: SPR Biacore T200, antibody captured, mIL-2 analyte
T3 construct: Soluble analyte in SPR; also called mIL-2
T3 sequence (looked up): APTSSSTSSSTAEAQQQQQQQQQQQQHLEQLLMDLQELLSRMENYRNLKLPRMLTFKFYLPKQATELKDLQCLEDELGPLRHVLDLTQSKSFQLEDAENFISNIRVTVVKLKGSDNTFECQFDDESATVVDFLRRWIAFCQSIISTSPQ
Excerpt: as §1

Mouse IL-2 [7] = biological target: T3, Mouse IL-2; assay: SPR Biacore, antibody captured, mIL-2 analyte
Excerpt: as §1

BDG17.053/hIL-2 complex = biological target: T4, BDG17.053/hIL-2 complex (human, UniProt P60568 21-153); assay: SPR, captured antibody saturated with hIL-2, CD25 injected
T4 construct: Captured humanized IgG1 saturated with 50 nM hIL-2 on the SPR chip; also called humanized IgG-hIL-2 complex
T4 sequence (P60568 21-153 limits assumed, one chain of several): as the sequence (P60568 21-153 limits assumed) above

[8] = biological target: T5, Fc-tagged CD122 (extracellular domain) (human, UniProt P14784 27-240); assay: SPR, Fc tagged hCD122 captured on a CM5 chip, soluble hCD25 injected
T5 construct: extracellular domain; Captured on an anti-human Fc chip; also called Fc tagged hCD122; not shown: Fc tag
T5 sequence (looked up): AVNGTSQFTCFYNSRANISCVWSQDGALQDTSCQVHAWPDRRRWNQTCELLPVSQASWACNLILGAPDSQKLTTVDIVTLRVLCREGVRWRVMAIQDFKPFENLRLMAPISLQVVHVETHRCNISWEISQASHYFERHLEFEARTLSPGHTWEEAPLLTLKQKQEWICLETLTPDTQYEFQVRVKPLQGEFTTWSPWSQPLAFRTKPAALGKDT
Protocol: Affinity and epitope binding site was assessed using Surface Plasmon Resonance (SPR). […] […] […] Diagrams represent SPR sensorgram traces of complex formation of IL-2R/Cytokine.

biotinylated human CD25 = biological target: B10; assay: SPR, biotinylated hCD25 on the chip, soluble hCD25 injected as a control
BDG17.023-hIL-2 complex = biological target: T6, BDG17.023-hIL-2 complex (human, UniProt P60568 21-153); assay: SPR, BDG17.023 on CM5 chip saturated with 50 nM hIL-2; 1000 nM CD25 injected after CD122
T6 construct: Non-covalent complex made on the SPR chip: immobilized BDG17.023 IgG1 saturated with 50 nM hIL-2; also called BDG17.023-IL-2 complex
T6 sequence (P60568 21-153 limits assumed, one chain of several): as the sequence (P60568 21-153 limits assumed) above

BDG17.038/hIL-2 complex = biological target: T7, BDG17.038/hIL-2 complex (human, UniProt P60568 21-153); assay: SPR, antibody captured on CM5 chip and loaded with 50 nM hIL-2; 1000 nM CD25 injected before CD122
T7 construct: Captured humanized IgG1 saturated with 50 nM hIL-2 on the SPR chip; also called humanized IgG-hIL-2 complex
T7 sequence (P60568 21-153 limits assumed, one chain of several): as the sequence (P60568 21-153 limits assumed) above
Protocol: (§2) Subsequently, running buffer was injected for 60 seconds to reach a steady baseline, and then 1000 nM of CD122 was injected for 30 seconds at a flow rate of 30 ul/min. To test CD122 binding, the same experiment was repeated in reverse order, with CD122 injected first flowed by injection of CD25.

BDG17.043/hIL-2 complex = biological target: T8, BDG17.043/hIL-2 complex (human, UniProt P60568 21-153); assay: as above
T8 construct: Captured humanized IgG1 saturated with 50 nM hIL-2 on the SPR chip; also called humanized IgG-hIL-2 complex
T8 sequence (P60568 21-153 limits assumed, one chain of several): as the sequence (P60568 21-153 limits assumed) above

BDG17.054/hIL-2 complex = biological target: T9, BDG17.054/hIL-2 complex (human, UniProt P60568 21-153); assay: SPR, antibody captured on CM5 chip and loaded with hIL-2; 1000 nM CD25 injected before CD122 (first set) and after CD122 (second set)
T9 construct: Captured humanized IgG1 saturated with 50 nM hIL-2 on the SPR chip; also called humanized IgG-hIL-2 complex
T9 sequence (P60568 21-153 limits assumed, one chain of several): as the sequence (P60568 21-153 limits assumed) above
Protocol: as §2

[9] = biological target: T10, BDG17.069 (AU-007)/hIL-2 complex (human, UniProt P60568 21-153); assay: SPR, AU-007 captured on CM5 chip and loaded with 10nM hIL-2; 1000nM hCD25 injected before hCD122 (1st set) and after hCD122 (2nd set)
T10 construct: On the SPR chip: captured AU-007 saturated with 50 nM hIL-2; In the HEK reporter assay: hIL-2 titrated in the presence of 200 nM AU-007; also called IL2+AU-007; A/IL-2
T10 sequence (P60568 21-153 limits assumed, one chain of several): as the sequence (P60568 21-153 limits assumed) above

[10] = biological target: T11, Non-alpha-IL-2 (naIL-2, hIL-2/hCD25 conjugate) (human, UniProt P01589 22-240; P60568 21-153); assay: SPR, biotinylated hCD25 on the chip, naIL-2 injected
T11 construct: Expressed in Expi293 cells; also called IL-2-CD25 conjugate; hIL-2/CD25 conjugated cytokine

Binder: B1
- Kd (Human IL-2 [1]): 0.0515 nM
- koff (Human IL-2 [1]): 0.000785 s⁻¹
- kon (Human IL-2 [1]): 1.52e+07 M⁻¹ s⁻¹

Binder: B2
- Kd (Human IL-2 [1]): 0.011 nM
- koff (Human IL-2 [1]): 0.000372 s⁻¹
- kon (Human IL-2 [1]): 3.37e+07 M⁻¹ s⁻¹
- Kd (cynomolgus monkey IL-2): 0.014 nM
- koff (cynomolgus monkey IL-2): 0.000398 s⁻¹
- kon (cynomolgus monkey IL-2): 2.83e+07 M⁻¹ s⁻¹

Binder: B3
- Kd (Human IL-2 [2]): 0.0643 nM
- koff (Human IL-2 [2]): 0.00254 s⁻¹
- kon (Human IL-2 [2]): 3.96e+07 M⁻¹ s⁻¹
- kon (Human IL-2 [3]): 3.39e+07 M⁻¹ s⁻¹

Binder: B4
- Kd (Human IL-2 [1]): 0.0202 nM
- koff (Human IL-2 [1]): 0.0002 s⁻¹
- kon (Human IL-2 [1]): 1.41e+07 M⁻¹ s⁻¹
- koff (Human IL-2 [4]): 0.0002 s⁻¹

Binder: B5
- Kd (Human IL-2 [2]): 0.0127 nM
- koff (Human IL-2 [2]): 0.0007 s⁻¹
- kon (Human IL-2 [2]): 5.5e+07 M⁻¹ s⁻¹

Binder: B6
- Kd (Human IL-2 [1]): 0.0482 nM
- koff (Human IL-2 [1]): 0.000222 s⁻¹
- Kd (Human IL-2 [4]): 0.0478 nM
- koff (Human IL-2 [4]): 0.000266 s⁻¹
- kon (Human IL-2 [4]): 3.39e+07 M⁻¹ s⁻¹

Binder: B7
- Kd (Human IL-2 [5]): 0.0818 nM
- koff (Human IL-2 [5]): 0.00107 s⁻¹
- kon (Human IL-2 [5]): 1.31e+07 M⁻¹ s⁻¹
- Kd (Mouse IL-2 [6]): 2460 nM
- koff (Mouse IL-2 [6]): 0.0979 s⁻¹
- kon (Mouse IL-2 [6]): 39800 M⁻¹ s⁻¹

Binder: B8
- Kd (Mouse IL-2 [7]): 0.13 nM
- koff (Mouse IL-2 [7]): 6.3e-05 s⁻¹
- kon (Mouse IL-2 [7]): 480000 M⁻¹ s⁻¹

Binder: B9
- binding result (BDG17.053/hIL-2 complex): no binding (tested: 1000 nM)
- binding result [8]: no binding (tested: 1 uM)
- binding result (biotinylated human CD25): no binding (tested: 1 uM)
- binding result (BDG17.023-hIL-2 complex): no binding (tested: 1000 nM)
- binding result (BDG17.038/hIL-2 complex): no binding (tested: 1000 nM)
- binding result (BDG17.043/hIL-2 complex): no binding (tested: 1000 nM)
- binding result (BDG17.054/hIL-2 complex): no binding (tested: 1000 nM)
- binding result [9]: no binding (tested: 1000 nM)

Binder: B10
- binding result [10]: no binding (tested: 1 uM)
